Results published in IntAct's records for PubMed 14567693.

B1: Electrogenic sodium bicarbonate cotransporter 1 (Homo sapiens), Q9Y6R1-1 (parent)
chain: MEDEAVLDRGASFLKHVCDEEEVEGHHTIYIGVHVPKSYRRRRRHKRKTGHKEKKEKERISENYSDKSDIENADESSSSILKPLISPAAERIRFILGEEDDSPAPPQLFTELDELLAVDGQEMEWKETARWIKFEEKVEQGGERWSKPHVATLSLHSLFELRTCMEKGSIMLDREASSLPQLVEMIVDHQIETGLLKPELKDKVTYTLLRKHRHQTKKSNLRSLADIGKTVSSASRMFTNPDNGSPAMTHRNLTSSSLNDISDKPEKDQLKNKFMKKLPRDAEASNVLVGEVDFLDTPFIAFVRLQQAVMLGALTEVPVPTRFLFILLGPKGKAKSYHEIGRAIATLMSDEVFHDIAYKAKDRHDLIAGIDEFLDEVIVLPPGEWDPAIRIEPPKSLPSSDKRKNMYSGGENVQMNGDTPHDGGHGGGGHGDCEELQRTGRFCGGLIKDIKRKAPFFASDFYDALNIQALSAILFIYLATVTNAITFGGLLGDATDNMQGVLESFLGTAVSGAIFCLFAGQPLTILSSTGPVLVFERLLFNFSKDNNFDYLEFRLWIGLWSAFLCLILVATDASFLVQYFTRFTEEGFSSLISFIFIYDAFKKMIKLADYYPINSNFKVGYNTLFSCTCVPPDPANISISNDTTLAPEYLPTMSSTDMYHNTTFDWAFLSKKECSKYGGNLVGNNCNFVPDITLMSFILFLGTYTSSMALKKFKTSPYFPTTARKLISDFAIILSILIFCVIDALVGVDTPKLIVPSEFKPTSPNRGWFVPPFGENPWWVCLAAAIPALLVTILIFMDQQITAVIVNRKEHKLKKGAGYHLDLFWVAILMVICSLMALPWYVAATVISIAHIDSLKMETETSAPGEQPKFLGVREQRVTGTLVFILTGLSVFMAPILKFIPMPVLYGVFLYMGVASLNGVQFMDRLKLLLMPLKHQPDFIYLRHVPLRRVHLFTFLQVLCLALLWILKSTVAAIIFPVMILALVAVRKGMDYLFSQHDLSFLDDVIPEKDKKKKEDEKKKKKKKGSLDSDNDDSDCPYSEKVPSIKIPMDIMEQQPFLSDSKPSDRERSPTFLERHTSC
partner: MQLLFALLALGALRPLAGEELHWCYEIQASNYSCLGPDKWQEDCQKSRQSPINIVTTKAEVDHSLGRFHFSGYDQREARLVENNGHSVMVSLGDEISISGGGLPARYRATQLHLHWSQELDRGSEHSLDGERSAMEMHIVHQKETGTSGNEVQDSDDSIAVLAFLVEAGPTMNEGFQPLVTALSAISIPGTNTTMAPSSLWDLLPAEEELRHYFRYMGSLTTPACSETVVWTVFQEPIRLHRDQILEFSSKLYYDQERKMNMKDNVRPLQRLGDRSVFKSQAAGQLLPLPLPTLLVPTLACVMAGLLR

Variants of: B1
Conditions: with cah4_rabit CA4, P48283

Row | effect of a mutation on the interaction | Variant
1 | disrupting interaction | G767T
